The source of these data is the nanobody polyreactivity screen of Harvey et al. (2022).

A short description of the data set: yeast display, Sf9 membrane polyspecificity reagent, FACS + sequencing; frameworks hold sequencing errors. Put shortly:
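Using colony PCR, genes from sorted yeast display clones were amplified, then sequenced on MiSeq at 2 × 250 and filtered by CDR length. The clones had been stained with 10% biotinylated, detergent-solubilized Sf9 membrane reagent for 1 hour at 4 °C and sorted by FACS into low and high (top ~1%) gates on anti-HA and streptavidin fluorescence. Polyreactivity labels come from the gate of origin.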
As to “QVQLVESGGGLVQAGGSLRLSCAASGRIFPYMGWYRQAPGKERELVAAINASGGRTYYADSVKGRFTISRDNAKNTVYLQMNSLKPEDTAVYYCNAVWSSDTYTHPQYDYWGQGTQVTVSS”, the “polyreactivity (PSR sort gate)” value is on record as “high polyreactivity”. Then “QVQLVESGGGLVQAGGSLRLSCAASGRIFPYNAMGWYRQAPGKERELVATNTSGRSTYYADSVKGRFTISRDNAKNTVDVPLNSLKPEDTAVYYCAARYPSIYYYRYDYWGQGTQVTVSS”, with “high polyreactivity”; and “QVQLVESGGGLVQAGGSLRLSCAASGRIFPYYAKGWYRQAPGKERELVAAINSGGSTYYADSVKGRFTISRDNAQNTVYLQMNSLKPEDTAVYYCIADVLYEDGFFWDDYWGQGTQVTVSS”, with “low polyreactivity”; and “QVQLVESGGGLVQAGGSLRLSCAASGRIFPYYAMGWSRQAPGKVRELVAAISVSDVRTYYPDSVKGRFTISRDNAKNTVYLQMNSLKPEDTAVYYCAAYWYRSPQSGLDYWGQGTQVTVSS”, with “low polyreactivity”. Then “QVQLVESGGGLVQAGGSLRLSCAASGRIFPYYAMGWYIQAPGKERELVAAIDGIGDTTYYADSVKGRFTISRDNAKNTVYLQMNSLKPEDTAVYYCNADGDAYYWGSYDEEDYWGQGTQVTVSS”, with “low polyreactivity”. For the sequence “QVQLVESGGGLVQAGGSLRLSCAASGRIFPYYAMGWYRQAPGKDRELVAAISWSGGRTYYADSVKGRFTISRDYAKNTVYLQMNSLKPDDNAVYFCAAGHSYRPYYYYGEYDYWGQGTQVTVSS”, the “polyreactivity (PSR sort gate)” value is “high polyreactivity”. With “QVQLVESGGGLVQAGGSLRLSCAASGRIFPYYAMGWYRQAPGKDRELVAANSYRGPRTSYADSVKGRFTISRDNAKNTAYLQRNSLKPEDTAVYYCAAVSVSWRGGRSSYEYWGQGTQVTVSS”, the “polyreactivity (PSR sort gate)” value was “high polyreactivity”. The same measure for “QVQLVESGGGLVQAGGSLRLSCAASGRIFPYYAMGWYRQAPGKERELVAGISYSGTSTYYADSVKGRFTISRDNAKNTVYLQMNSLKPEDTAVYYCATTSWRYGYDYWGQGTQVTVSS”: “high polyreactivity”; for “QVQLVESGGGLVQAGGSLRLSCAASGRIFPYYAMGWYRQAPGKERELVATISSGGRTNYADSVKGRFTMSRDNAKNTVYVQMNSLKPEDTAVYYCAADYRTPTDVEYDYWGQGTQVTVSS”: “high polyreactivity”.

Regarding “QVQLVESGGGLVQAGGSLRLSCAASGRIFPYYTLGWYTQAPGKERELVATITTGGSTNYADSVKGRFTLSRDNAENTVYLKMNSLKPEDTAVYYCNNDGVVEVRFTGRQEYDYWGQGTQVTVSS”, the “polyreactivity (PSR sort gate)” value is listed as “low polyreactivity”. Then “QVQLVESGGGLVQAGGSLRLSCAASGRIFPYYTMGWYRQAPGKERELVAAISRRGSSTYYADSVKGRFTISRDNAQNTVYLQMNSLKPEDTAVYNCAADRGGYTRTGEYDYWGQGTQVTVSS”, with “high polyreactivity”; and “QVQLVESGGGLVQAGGSLRLSCAASGRIFPYYVMGWYRQAPGKERELVAAISRSGSSTYYADSVKGRFTISRDNAKNTVSLQMNSLKPEDTAVYSCAADYNWSPYYTRGDYWGQGTQVTVSS”, with “high polyreactivity”; and “QVQLVESGGGLVQAGGSLRLSCAASGRIFPYYVMGWYRQAPGKERELVAAISRSGSSTYYADSVKGRFTITRDNAKNTVYLQMNSLKPEDTAVYYCAADYNWSPYYTRGDYWGQGTQVTVSS”, with “high polyreactivity”. “QVQLVESGGGLVQAGGSLRLSCAASGRIFQDYAMGWYRQAPGKERELVASIRWSSTSTYYADSVKGRFTISRDNAKNTVYLQMNSLKPEVSAVYYCAKRPFYLTYFRDDYWGQGTQVSVSS”: the “polyreactivity (PSR sort gate)” value was “low polyreactivity”. Take “QVQLVESGGGLVQAGGSLRLSCAASGRIFQFNFMGWYRQAPGKERELVAAISGSGGSTYADSVKGRFTISRDNAKNTVYLQMNSLKPEDTAVYYCATEYVVYRPRGRLQKFDYWGQGTQVTVSS”: the “polyreactivity (PSR sort gate)” value is recorded as “low polyreactivity”.

For the sequence “QVQLVESGGGLVQAGGSLRLSCAASGRIFQGNAMGWYRQAPGKERELVAAITSSGSSTYYADSVKGRFTISRDNAKNTVYLQMNSLKPEDTAVYYCAARATGPIMYYWGQGTQVTVSS”, the “polyreactivity (PSR sort gate)” value is given as “high polyreactivity”.

For the sequence “QVQLVESGGGLVQAGGSLRLSCAASGRIFQGYAMGWYRQAPGKERELDAAITVRGGTTYYADSVKGRFTISRDNAKNTVYLQMNRRKPEDTAVYYCNAAKLIHCYQYVYPASNSRYYYWGQGTQVTVSS”, the “polyreactivity (PSR sort gate)” value is on record as “low polyreactivity”. In the case of “QVQLVESGGGLVQAGGSLRLSCAASGRIFQGYAMGWYRQAPGKERELVARITFRGARTYYADSVKGRFTISRDNAKITVYLHMNCLKPEDTAVYYFAKDAETYYWGSYKSLYDYWGQGTQVTVSS”, the “polyreactivity (PSR sort gate)” value is recorded as “low polyreactivity”. The same measure for “QVQLVESGGGLVQAGGSLRLSCAASGRIFQGYAMGWYRQAPRKERELVASITVRGGTTYYADSVKGRFTISRDHAKNTVYLQMISLKPEDTAVYYCNAAKLIHGYQSVYPGSNSRYYYWGQGTQVTVSS”: “low polyreactivity”; for “QVQLVESGGGLVQAGGSLRLSCAASGRIFQHNTMGWYRQAPGKEREFVAAIRRSGGSTYYADSVKGRFTISRDNAKNTVYLQMNSLKPEDTAVYYCAARDYPTGTRRWGGGDSWGQGTQVTVSS”: “low polyreactivity”.

Turning to “QVQLVESGGGLVQAGGSLRLSCAASGRIFQKNAMGWYRQAPGKERELVAAISSGGSTNYADSVKGRFTISRDNAKNTVYLQMNSLKPEDTAVYYCAVESVYEYGGYVDSAYDYWGQGTQVTVSS”, the “polyreactivity (PSR sort gate)” value was “low polyreactivity”.

“QVQLVESGGGLVQAGGSLRLSCAASGRIFQLYAMGWYRQRPGKERELVAAIRYSGDSTYYADSVKGRFTISRDNAKNTVYLQMNSLKPEDTAVYYCAAYWVYLSYYRYDYWGQGTQVTVSS”: the “polyreactivity (PSR sort gate)” value is “high polyreactivity”. Then “QVQLVESGGGLVQAGGSLRLSCAASGRIFQNYAMGWYRQATGKERELVAAIRRSSGRSYYADSVKGRFTISRDNAKNTVYLLMNSLKPEDTAVYYCNAVRGEEYDYWGQGTQVTVSS”, with “high polyreactivity”; and “QVQLVESGGGLVQAGGSLRLSCAASGRIFQPYTMGWYRQAPGKERELVAAITRSGGSTYYADSVKGRFTISRDNAKNTVYLQMNSLKPEDTAVYYCAADSRPYGKYDYWGQGTQVTVSS”, with “high polyreactivity”; and “QVQLVESGGGLVQAGGSLRLSCAASGRIFQRYAMGWYRQAPGKERELVATITRSGGSTYYADSVKGRFTISRDNAKNTVYLQMNSLKPEDTAVFYCSRQWYRYGMGYWGQGTQVSVSS”, with “high polyreactivity”. As to “QVQLVESGGGLVQAGGSLRLSCAASGRIFQRYAMGWYSQAPGKERELVAAISSRGGRTFYADSVKGRFTISRDNAKNTVYLQMNSLKPEDTAAYYCAATATVGCVSFDYWGQGTQVTVSS”, the “polyreactivity (PSR sort gate)” value is listed as “high polyreactivity”. The same measure for “QVQLVESGGGLVQAGGSLRLSCAASGRIFQRYMGWYRQAPGKERELVAAISRRGGSTYYADSVKARFTISRDNAKNTVYLQMNSLKPEDTAVYYWNAVNVLAPSRGRRYDYWGQGTQVTVSS”: “high polyreactivity”.

With “QVQLVESGGGLVQAGGSLRLSCAASGRIFQSNAMGLYRQAPGKERELVAAISYSGGGSTYYADSVNGRFTISRDNAKNTVYLQMNSLKPEDTAVYYCAARRVGGCFYTWRNPAYEYWGQGTQVTVSS”, the “polyreactivity (PSR sort gate)” value was “high polyreactivity”. Then “QVQLVESGGGLVQAGGSLRLSCAASGRIFQSNVMGWYRQAPGKERELVAGISTSGGSTYYADSVKGRFTISRDYAKNTVYLQMNSLKPEDTAVYYCAKDPSAVKVPYGYPVIKKTYNSWGQGTQVTVSS”, with “low polyreactivity”; and “QVQLVESGGGLVQAGGSLRLSCAASGRIFQSYAMGWYRQAPGKERELVAGIRAGGGRTYYADSVKGRFTISRDNAKNTVYLQMNSLKPEDTAVYYCAAGGRPYKLDFTRSDYWGEGTQVTVSS”, with “low polyreactivity”; and “QVQLVESGGGLVQAGGSLRLSCAASGRIFQVNAMGWYRQAPGKERELVAAITYSGGTTYYADSVKGRFTISRDNAKNTVYLQMNSLKPEDTAVYYCAAEGYGAQGDPWQYGYEYWGQGTQVTVSS”, with “low polyreactivity”. Then “QVQLVESGGGLVQAGGSLRLSCAASGRIFQWYAMGSYRQAPGKERELVATISDGDSTNYADSVKGRFTISRDNAKNTVFAQMNSLKTEDTEVYYCAALDSYYDSYYWYDYWGQGTQVTVSS”, with “high polyreactivity”.

On to “QVQLVESGGGLVQAGGSLRLSCAASGRIFQYNAMGWYRQSPGKERELVAAIRRGGGSTYYADSVKGRFTISRDNAKNTVYLQMNSLKPEDTAVYYCAARRKRVSFYPEYDYWGQGTQVTVSS”, for which the “polyreactivity (PSR sort gate)” value is given as “low polyreactivity”.

Regarding “QVQLVESGGGLVQAGGSLRLSCAASGRIFQYYAMGWYRQAPGKERELVAAIDQSGDTTYYADSVKGRFTISRDNAKNTVYLQMNSLKPEDTAVYYCAAGYDWAYHWVPQWMYFWGQGTQVTVSS”, the “polyreactivity (PSR sort gate)” value is recorded as “low polyreactivity”. The same measure for “QVQLVESGGGLVQAGGSLRLSCAASGRIFQYYAMGWYRQAPGKERELVAAISRGGSTNYADSVKGRFTISRDNAKNTVYLQMNSLKPEDTAVYFCAADEYRYYFYRAGIGFDYWGQGTQVTVSS”: “low polyreactivity”; for “QVQLVESGGGLVQAGGSLRLSCAASGRIFQYYAMGWYRQAPGKERELVAAISRTGSTYYADSVKGRFTISRDNGKNTVYLQMNRLNPEDTAVYYCAADYWPQSNRWVYFRYGYWGQGTQVTVSS”: “high polyreactivity”; for “QVQLVESGGGLVQAGGSLRLSCAASGRIFQYYTMGWYRQAPGKERELVAAISYGGGSTYYADSVKGRFTISRDHAKNTVYLQMNSLKPEDTAVYYCNAVTYSRRYAYYYWGQGTQVTVSS”: “high polyreactivity”.

For the sequence “QVQLVESGGGLVQAGGSLRLSCAASGRIFQYYTMGWYRQAPGKERELVAAITWSSSRTYYADSVKGRVTISRDNAKNTVYLQMNSLKPEDTAVNYCAAEAQAAWNDYTYWGQGTQVTVSS”, the “polyreactivity (PSR sort gate)” value is recorded as “high polyreactivity”. “QVQLVESGGGLVQAGGSLRLSCAASGRIFRANAMGWYRQAPGKERELVAAISYRGGSTYYADSVKGRFTISRDNAKNTVYLQMNSLKPEDTAVYYCAADSDRSVWIYGYWGQGTQVTVSS”: the “polyreactivity (PSR sort gate)” value was “low polyreactivity”. Then “QVQLVESGGGLVQAGGSLRLSCAASGRIFRAYAMGWYRQAPGKEREFVAAITWSGGSTYYADSVKGRFTISRDNAKNTVYLQMNSLKPEDTAVYYCAARGYSYRRRSQQFDYWGQGTQVTVSS”, with “high polyreactivity”.
